From paper PMC11998487 (2025)

Target: T1, EV71-VP1-His (enterovirus 71 (EV71), UniProt Q66478 566-862, RED-tris-NTA dye on the His tag (in the MST only))
T1 chain: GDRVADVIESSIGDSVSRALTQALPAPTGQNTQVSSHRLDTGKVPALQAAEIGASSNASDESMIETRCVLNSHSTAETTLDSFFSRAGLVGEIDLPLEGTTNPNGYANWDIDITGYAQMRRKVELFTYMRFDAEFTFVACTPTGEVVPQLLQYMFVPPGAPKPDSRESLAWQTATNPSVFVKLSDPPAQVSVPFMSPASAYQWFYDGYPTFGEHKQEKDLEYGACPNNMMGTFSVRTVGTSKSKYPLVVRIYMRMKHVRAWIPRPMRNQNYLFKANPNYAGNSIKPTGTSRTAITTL
Experiment: MST

B1: ZYG11B 1–58-GST (domain or fragment)
chain: MPEDQAGAAMEEASPYSLLDICLNFLTTHLEKFCSARQDGTLCLQEPGVFPQEVADRL
**Q.** For B1, which Kd is on record?
**A.** 5.55 µM
